Test results from the supplement of paper PMC5998384.

Key:
HeLa Kyoto [1] = assay: thermal stability score vs G1/S (z-score of summed log2 fold changes over temperatures); higher = more thermally stable than in G1/S
HeLa Kyoto [2] = assay: melting temperature (median over replicates), in situ; higher = more thermally stable
HeLa Kyoto [3] = assay: solubility change mitosis vs G1/S (difference of NP-40 vs SDS log2 ratios) (log2 ratio difference); higher = more soluble in mitosis
HeLa Kyoto [4] = assay: solubility in G1/S (NP-40 vs SDS abundance) (log2 ratio); higher = more soluble; details: cell cycle stage: G1/S
[5] = cell cycle stage: early G1 (4.5 h after nocodazole release)
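Wherever melting temperature (median over replicates), in situ is given: HeLa Kyoto cells synchronized by double thymidine or nocodazole block, proteins quantified by TMT10plex mass spectrometry, three independent biological replicates.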
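Wherever solubility change mitosis vs G1/S (difference of NP-40 vs SDS log2 ratios) is given: synchronized HeLa Kyoto cells (double thymidine block for G1/S, nocodazole release for mitosis), protein amounts in NP-40 versus SDS lysates quantified by mass spectrometry, three biological replicates.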
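Wherever solubility in G1/S (NP-40 vs SDS abundance) is given: HeLa Kyoto cells arrested at G1/S by double thymidine block, proteins quantified by TMT10plex mass spectrometry in mild NP-40 versus SDS extracts, three biological replicates.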
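Wherever thermal stability score vs G1/S (z-score of summed log2 fold changes over temperatures) is given: synchronized HeLa Kyoto cells, proteins quantified by TMT10plex mass spectrometry, three biological replicates, mitosis taken 0.5 h after nocodazole release, G1/S directly after double thymidine block.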

Sequence | thermal stability score (HeLa Kyoto [1]; [5]) | thermal stability score (HeLa Kyoto [1]; cell cycle stage: mitosis) | melting temperature (HeLa Kyoto [2]; cell cycle stage: G1/S) | melting temperature (HeLa Kyoto [2]; cell cycle stage: mitosis) | solubility change mitosis (log2) (HeLa Kyoto [3]) | solubility in G1/S (log2) (HeLa Kyoto [4])
MAEGTAEAPLENGGGGDSGAGALERGVAPIKRQYLTTKEQFHQFLEAKGQEKTCRETEVGDPAGNELAEPEAKRIRLEDGQTADGQTEEAAEPGEQLQTQKRARGQNKGRPHVKPTNYDKNRLCPSLIQESAAKCFFGDRCRFLHDVGRYLETKPADLGPRCVLFETFGRCPYGVTCRFAGAHLRPEGQNLVQEELAARGTQPPSIRNGLDKALQQQLRKREVRFERAEQALRRFSQGPTPAAAVPEGTAAEGAPRQENCGAQQVPAGPGTSTPPSSPVRTCGPLTDEDVVRLRPCEKKRLDIRGKLYLAPLTTCGNLPFRRICKRFGADVTCGEMAVCTNLLQGQMSEWALLKRHQCEDIFGVQLEGAFPDTMTKCAELLSRTVEVDFVDINVGCPIDLVYKKGGGCALMNRSTKFQQIVRGMNQVLDVPLTVKIRTGVQERVNLAHRLLPELRDWGVALVTLHGRSREQRYTKLADWQYIEECVQAASPMPLFGNGDILSFEDANRAMQTGVTGIMIARGALLKPWLFTEIKEQRHWDISSSERLDILRDFTNYGLEHWGSDTQGVEKTRRFLLEWLSFLCRYVPVGLLERLPQRINERPPYYLGRDYLETLMASQKAADWIRISEMLLGPVPPSFAFLPKHKANAYK [DUS3L] | 1.52 | 2.59 | 49 °C | 48.5 °C | -0.0331 | -0.0832
MAEISDLDRQIEQLRRCELIKESEVKALCAKAREILVEESNVQRVDSPVTVCGDIHGQFYDLKELFRVGGDVPETNYLFMGDFVDRGFYSVETFLLLLALKVRYPDRITLIRGNHESRQITQVYGFYDECLRKYGSVTVWRYCTEIFDYLSLSAIIDGKIFCVHGGLSPSIQTLDQIRTIDRKQEVPHDGPMCDLLWSDPEDTTGWGVSPRGAGYLFGSDVVAQFNAANDIDMICRAHQLVMEGYKWHFNETVLTVWSAPNYCYRCGNVAAILELDEHLQKDFIIFEAAPQETRGIPSKKPVADYFL [PPP4C] | 0.0354 | -1.42 | 54.8 °C | 55.3 °C | -0.0748 | -0.237
MAEKVLVTGGAGYIGSHTVLELLEAGYLPVVIDNFHNAFRGGGSLPESLRRVQELTGRSVEFEEMDILDQGALQRLFKKYSFMAVIHFAGLKAVGESVQKPLDYYRVNLTGTIQLLEIMKAHGVKNLVFSSSATVYGNPQYLPLDEAHPTGGCTNPYGKSKFFIEEMIRDLCQADKTWNAVLLRYFNPTGAHASGCIGEDPQGIPNNLMPYVSQVAIGRREALNVFGNDYDTEDGTGVRDYIHVVDLAKGHIAALRKLKEQCGCRIYNLGTGTGYSVLQMVQAMEKASGKKIPYKVVARREGDVAACYANPSLAQEELGWTAALGLDRMCEDLWRWQKQNPSGFGTQA [GALE] | -3.9 | -0.458 | 53.3 °C | 53.8 °C | -0.146 | 0.453
MAELGAGGDGHRGGDGAVRSETAPDSYKVQDKKNASSRPASAISGQNNNHSGNKPDPPPVLRVDDRQRLARERREEREKQLAAREIVWLEREERARQHYEKHLEERKKRLEEQRQKEERRRAAVEEKRRQRLEEDKERHEAVVRRTMERSQKPKQKHNRWSWGGSLHGSPSIHSADPDRRSVSTMNLSKYVDPVISKRLSSSSATLLNSPDRARRLQLSPWESSVVNRLLTPTHSFLARSKSTAALSGEAASCSPIIMPYKAAHSRNSMDRPKLFVTPPEGSSRRRIIHGTASYKKERERENVLFLTSGTRRAVSPSNPKARQPARSRLWLPSKSLPHLPGTPRPTSSLPPGSVKAAPAQVRPPSPGNIRPVKREVKVEPEKKDPEKEPQKVANEPSLKGRAPLVKVEEATVEERTPAEPEVGPAAPAMAPAPASAPAPASAPAPAPVPTPAMVSAPSSTVNASASVKTSAGTTDPEEATRLLAEKRRLAREQREKEERERREQEELERQKREELAQRVAEERTTRREEESRRLEAEQAREKEEQLQRQAEERALREREEAERAQRQKEEEARVREEAERVRQEREKHFQREEQERLERKKRLEEIMKRTRRTEATDKKTSDQRNGDIAKGALTGGTEVSALPCTTNAPGNGKPVGSPHVVTSHQSKVTVESTPDLEKQPNENGVSVQNENFEEIINLPIGSKPSRLDVTNSESPEIPLNPILAFDDEGTLGPLPQVDGVQTQQTAEVI [MAP7] | -5.44 | -8.57 | 54.3 °C | 52.1 °C | 0.704 | -0.661
MAELQMLLEEEIPSGKRALIESYQNLTRVADYCENNYIQATDKRKALEETKAYTTQSLASVAYQINALANNVLQLLDIQASQLRRMESSINHISQTVDIHKEKVARREIGILTTNKNTSRTHKIIAPANMERPVRYIRKPIDYTVLDDVGHGVKWLKAKHGNNQPARTGTLSRTNPPTQKPPSPPMSGRGTLGRNTPYKTLEPVKPPTVPNDYMTSPARLGSQHSPGRTASLNQRPRTHSGSSGGSGSRENSGSSSIGIPIAVPTPSPPTIGPENISVPPPSGAPPAPPLAPLLPVSTVIAAPGSAPGSQYGTMTRQISRHNSTTSSTSSGGYRRTPSVTAQFSAQPHVNGGPLYSQNSISIAPPPPPMPQLTPQIPLTGFVARVQENIADSPTPPPPPPPDDIPMFDDSPPPPPPPPVDYEDEEAAVVQYNDPYADGDPAWAPKNYIEKVVAIYDYTKDKDDELSFMEGAIIYVIKKNDDGWYEGVCNRVTGLFPGNYVESIMHYTD [ABI1] | -0.724 | -0.695 | 51.1 °C | 51.4 °C | -0.104 | 0.313
